# Laboratory results reported in the nanobody polyreactivity screen of Harvey et al. (2022).
# Experiment: yeast display, Sf9 membrane polyspecificity reagent, FACS + sequencing; frameworks hold sequencing errors
# Method in brief: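 A nanobody's polyreactivity label depends on the gate it was sorted from. Yeast display cells were stained with 10% biotinylated, detergent-solubilized Sf9 membrane reagent for 1 hour at 4 °C, enriched on streptavidin microbeads and sorted by FACS. The low and high (top ~1%) gates were set on anti-HA fluorescence for expression and streptavidin fluorescence for reagent binding.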
row,Sequence,polyreactivity (PSR sort gate)
1,QVQLVESGGGLVQAGGSLRLSCAASGSIFVYNAMGWYRQAPGKERELVAAISQRGGSTYYADSVKGRFTISRDYSKNTVYLQMNSLKPEDTAVYYCAAGPGDSGDDYWGQGTQVTVSS,low polyreactivity
2,QVQLVESGGGLVQAGGSLRLSCAASGSIFVYNAMGWYRQAPGKERELVAGITFIGGSTYYADSVKGRFTISRDTAKNTVYLPMNSLKPEDTAVYYRNADGAPGIFYGYDSWGQGTQVTVSS,low polyreactivity
3,QVQLVESGGGLVQAGGSLRLSCAASGSIFVYNAMGWYRQAPGKEREWVAGITFIGGSTYYADSVKGRFTISRDNEKNTVYLQMNSLKPEDTAFYYCATDLPGGRYYGPYDYWGQGTQVTVSS,low polyreactivity
4,QVQLVESGGGLVQAGGSLRLSCAASGSIFVYNAMGWYRQAPGNERELVAGINYSGGSTYYADSVKGRFTISRDNATNTVYLQMNSLKPEDTAVYSCARRRPYQWPYNYWGQGTQVTVSS,high polyreactivity
5,QVQLVESGGGLVQAGGSLRLSCAASGSIFVYNDMGWYRPAPGKERELVAGIDWSGDRTYADSVKGRFTISRDNAKNTVYLQMNSLKPEDTAVYYCNADEWRWDEIIPYAVDYWGQGTQVTVSS,low polyreactivity
6,QVQLVESGGGLVQAGGSLRLSCAASGSIFVYYALGWYRQAPGKERELVAAISSSGDTTYYADSVKGRFTISRDNAKNTVYLQMNSLKPEDTAVYYCNTRNDRASQRWVSREMDYWGQGTQVTVSS,high polyreactivity
7,QVQLVESGGGLVQAGGSLRLSCAASGSIFVYYAMGWYRQAPGKERELVARITRGGRTYYADSVKGRFTISRDNAKNTVYLQMNSLKPEDTAVYYCAADYRVQLRKEYDYWGQGTQVTVSS,high polyreactivity
8,QVQLVESGGGLVQAGGSLRLSCAASGSIFVYYAMGWYRQAPGKERELVATINYNDGSTYYADSVKGRFTISRDNAKNTVYLQMNSLKPEDTAVYYCAADIVWSPESHPWYYVHYYYWGQGTQVTVSS,low polyreactivity
9,QVQLVESGGGLVQAGGSLRLSCAASGSIFVYYTMGWYRQAPGKERELVAAISISGTSTYYADSVKGRFTISRDNAKNTVYLQMNSLKPEDTAVYYCAADTYYGEDYWGQGTQVTVSS,low polyreactivity
10,QVQLVESGGGLVQAGGSLRLSCAASGSIFWANAMGWYRQAPGNERELVAAISRSGTSTFYADSVKGRFTISRDNAKNTVYLQMNSLKPEDTAVYYCNAVGSGYRSWYVYWGQGTQVTVSS,high polyreactivity
11,QVQLVESGGGLVQAGGSLRLSCAASGSIFWAYAMGWYRQAPGKERELVAAISRGGTTTYADSVKGRFTISRDNAKNTVYLQMNSLKPEDTAVYYCARRAVYSKRRYDYWGQGTQVTVSS,low polyreactivity
12,QVQLVESGGGLVQAGGSLRLSCAASGSIFWDYAMGWYRQSPGKERELVAAISGSGTSTYYADSVKGRFTISRDNAKNTVYLQMNSLKPEDTAVYYCAARIWTGRGRKLGNGYDYWGQGTQVTVSS,low polyreactivity
13,QVQLVESGGGLVQAGGSLRLSCAASGSIFWGNAMGWYRQAPGKERELVAAIDWSGGSTYYADSVKGRFTISRDNAKNTVYLQMHSLKPEDTAVYYCAASGRYDYDYWGQGTQVTVSS,low polyreactivity
14,QVQLVESGGGLVQAGGSLRLSCAASGSIFWGNAMGWYRQAPGKERELVAGISRGGSTYYADSVKGRFTISRDNAKNTVYLQMNSLKPEDTAVYYCNADSDPVTAGYDYWGQGTQVTVSS,low polyreactivity
15,QVQLVESGGGLVQAGGSLRLSCAASGSIFWGNTMGWYRQAPGKERELVAAISRSGSSTYYADSVKGRFTISRDNAKNTVYLQMNSLKPEDTAVYYCAASVPYYTGYYYNAYEYWGQGTQVTVSS,high polyreactivity
16,QVQLVESGGGLVQAGGSLRLSCAASGSIFWHNAMGWYRQAPGTEREFVAAISGSGGSTYYADSVKGRFTISRDNAKNTVYLQMISLKPEDTAVYYCAADIYYWSFYYSRYDYWGQGTQVTVSS,high polyreactivity
17,QVQLVESGGGLVQAGGSLRLSCAASGSIFWKNAMGWYRQAPGKERELVAAITRRGGSTYYADSVKGRFTISRDNAKNTVYLQMNSLKPEDTAVYYCAATGGAPYKIEWGQGTQVTVSS,low polyreactivity
18,QVQLVESGGGLVQAGGSLRLSCAASGSIFWKYAMGWYRQAPGKERELVAAISDGVSTNYADSVKGRFTISRDNAQNTVYLQMNSLKPEDTAVYYCNAETRERDPTREFDYWGQGTQVTVSS,low polyreactivity
19,QVQLVESGGGLVQAGGSLRLSCAASGSIFWNAMGWNKQAPGKERELVAAISWSGTRTYYADSVKGRFTISRDNAKNTVYLQMNSLKPEDTAVYYCNAVQWNAYYYWGQGTQVTVSS,high polyreactivity
20,QVQLVESGGGLVQAGGSLRLSCAASGSIFWNNDMGWYRPAPGKERELVAGISGGSTNYADSVKGRFTISRDNAKNTVYLQMNSLKPEDTAVYYCATERQWESRLEAYDYWGQGTQVTVSS,low polyreactivity
21,QVQLVESGGGLVQAGGSLRLSCAASGSIFWPNAMGWYRQAPGKERELVAAISRGGSTNYADSVKGRFTISRDNAKNTVYLQMNSLKPEDTAVYYCATDAYYYNLLYLFPRYDYWGQGTQVTVSS,low polyreactivity
22,QVQLVESGGGLVQAGGSLRLSCAASGSIFWPYAMGWYRQAPGKEREFVAAITWSGGSTYYADSVKGRFTISRDNAKNTVYLQMNSLKPEDTAVYYCAAEITWYYHDFGYWGQGTQVTVSS,high polyreactivity

row,Sequence,polyreactivity (PSR sort gate)
1,QVQLVESGGGLVQAGGSLRLSCAASGSIFWPYTMGWSRQAPGKECELVAAITSTDSTDYADSVKGRFTISRDNAKNTVYLQMNSLKPEDTAVYYCNADYQSRTGSGIYTDHPYDYWGQGTQVTVSS,low polyreactivity
2,QVQLVESGGGLVQAGGSLRLSCAASGSIFWQYAMGWYRQAPGKERELVAAINWSGDTTYYADSVKGRFTISRDNAKNTVYLQMNSLKPEDTAVYYCAAVGGVSFGGSPKTHAGEDYWGQGTQVTVSS,low polyreactivity
3,QVQLVESGGGLVQAGGSLRLSCAASGSIFWRNAMGWYRQAPGKEREFVAAISARGGSTYYADSVKGRFTISRDNAKNTVYLQMNSLKPEDSAVYDCAASWGLGTYSDSTYWGGYYYWGQGTQVTVSS,low polyreactivity
4,QVQLVESGGGLVQAGGSLRLSCAASGSIFWRNAMGWYRQAPGKERELVAAISGNGGTTYYADSVKGRFTISRDNAKNTVYLQMNSLKPEDTAVYYCAKVGKTYRTYEYWGQGTQVTVSS,high polyreactivity
5,QVQLVESGGGLVQAGGSLRLSCAASGSIFWRYAMGWYRQAPGKERELVAAIDVSGATTYYADSVKGRFTISRDNAKNTVYLQMNSLKPEDTAVYYCATYATNSVAAYDYWGQGTQVTVSS,low polyreactivity
6,QVQLVESGGGLVQAGGSLRLSCAASGSIFWRYAMGWYRQAPGKERELVAVISDRGGITYYADSVKGRFTISRDNAKNTVYLQMNSLKPEDTAVYYCNAVDSDRSDPSEYDYWGQGTQVTVSS,low polyreactivity
7,QVQLVESGGGLVQAGGSLRLSCAASGSIFWSNARGWYRQAPGKERELVATIDDDVGSTYYADSVKGRFTISRDNAKNTVYLQMNSLKPEDTAVYYCAADSVYYVMPYEYWGQGTQVTVSS,low polyreactivity
8,QVQLVESGGGLVQAGGSLRLSCAASGSIFWSYAMGWYRQAPGKEREFVASITGSGGTTTYADSVKGRFTISRDNAKNTVYLQMNSLKPEDTAVYYCNARLHGWYHVYYIYDYWGQGTQVTVSS,low polyreactivity
9,QVQLVESGGGLVQAGGSLRLSCAASGSIFWTKAMGWYRQAPGKERELVARITYSGGSTYYADSVKGRFTISRDNAKNTVYLQMNSLKPEDTAVYYCNARTHGWPYSRYYYWGQGTQVTVSS,high polyreactivity
10,QVQLVESGGGLVQAGGSLRLSCAASGSIFWVNGMGWYRQAPGKERELVAAITWSGGSTYYADSVKGRFTISRDNAKNTVYLQMNSLKPEDTAVYYCAAYCQYYLWDGYGYWGQGTQVTVSS,low polyreactivity
11,QVQLVESGGGLVQAGGSLRLSCAASGSIFWVYAMGWYRQAPGKERELVAAISSSGGRTYYADSVKGRFTISRDNAKNTVYLQMNSLKPEDTAVYYCASRWKTGYNYWGQGTQVTVSS,high polyreactivity
12,QVQLVESGGGLVQAGGSLRLSCAASGSIFWVYAMGWYRQAPGKERELVADISRSGGSTYYADSVKGRFTISRDNAKNTVYLQMNSLKPEDTAVYYCAAEYYGQVLFQPYVYQLMYYWGQGTQVTVSS,low polyreactivity
13,QVQLVESGGGLVQAGGSLRLSCAASGSIFWWYAMGWYRPAPGKERELVAAISGRGGNTYYADSVKGRFTISRDNAKNTVYLQMNSLKPEDTAVYYCNADDTKYPYYTDDYWGQGTQVTVSS,low polyreactivity
14,QVQLVESGGGLVQAGGSLRLSCAASGSIFWYNAMGWYRQAPGKERELVAAIDRSGGNTYYADSVKGRFTISRDNAKNTVYLQMNSLKPEDTAVYYCARRIGRTYRYVYWGQGTQVTVSS,high polyreactivity
15,QVQLVESGGGLVQAGGSLRLSCAASGSIFWYNAMGWYRQAPGKERELVAAIRWRGGSTYYADSVKGRFTISRDNAKNTVYLQMNSLKPEDTAVYYCARDRYYRTLGYGYWGQGTQVNVSS,high polyreactivity
16,QVQLVESGGGLVQAGGSLRLSCAASGSIFWYNAMGWYRQAPGKERELVAAIRWRGGSTYYADSVKGRFTISRDNAKNTVYVQMSSLKPEDTAVYYCAAQVYVSQLYTSYYYWGQGTQVTVSS,high polyreactivity
17,QVQLVESGGGLVQAGGSLRLSCAASGSIFWYYAMGWYRQAPGKERELVAAISISGSTYYADSVKGRFTISRDNAKNTVYLQMNSLKPEDTAVYYCAARKFFWRSNYDYWGQGTQVTVSS,low polyreactivity
18,QVQLVESGGGLVQAGGSLRLSCAASGSIFWYYAMGWYRQAPGKERELVASISSSGGSTYYADSVKGRFTISRDNAKNTVYLQMNSLKPEYTAVYYCAKRTNWGYWYNSWGQGTQVTVSS,high polyreactivity
19,QVQLVESGGGLVQAGGSLRLSCAASGSIFWYYAMGWYRQAPGKERELVASITSAGSTNYADSVKGRFTISRDNAKNTVYLQMNSLKPEDTAVYYCNTDDDSSSTGYYSWGQGTQVTVSS,low polyreactivity
20,QVQLVESGGGLVQAGGSLRLSCAASGSIFYANTLGWYRQAPGTERELVAAINWSGGRTYYADSVKGRFTISRDNAKNTVYLQMNSLKPEDTAVYYCAASATYLYKYPVWGYDYWGQGTQVTVSS,high polyreactivity
21,QVQLVESGGGLVQAGGSLRLSCAASGSIFYANTMGWYRQAPGKEREFVAAITWSGGSTYYADSVKGRFTISRDNAKNTVYLQMNSLKPEDTAVYYCAAEEQRYWYEYYYWGQGTQVTVSS,high polyreactivity
